Measurements as given in article PMC3196243 (Biochemistry, 2011).
Like-named read-outs stand apart in the source and are kept apart here.

T1: His6-IC3 (third intracellular loop of the dopamine D2S receptor, R217-Q345) (UniProt P61169-2 217-345)
T1 sequence (looked up): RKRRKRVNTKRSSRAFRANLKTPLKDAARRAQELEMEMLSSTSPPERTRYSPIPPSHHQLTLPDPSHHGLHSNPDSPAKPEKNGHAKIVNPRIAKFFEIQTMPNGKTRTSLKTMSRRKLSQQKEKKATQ

B1: S100B (natural protein)
chain: SELEKAMVALIDVFHQYSGREGDKHKLKKSELKELINNELSHFLEEIKEQEVVDKVMETLDNDGDGECDFQEFMAFVAMVTTACHEFFEHE
B2: IC3-C58 (domain or fragment, UniProt P61169-2 288-345, looked up)
chain: SNPDSPAKPEKNGHAKIVNPRIAKFFEIQTMPNGKTRTSLKTMSRRKLSQQKEKKATQ

Key:
[1] = target: T1, His6-IC3 (third intracellular loop of …); assay: pull-down
S100B [2] = target: B1; assay: NMR titration
S100B [3] = target: B1; assay: NMR titration; remark: listed apart in the source

Row | binding result [1] | Kd (S100B [2]) | Kd (S100B [3]) | Binder
1 | binds |  |  | B1
2 |  | 1 ± 1 µM | 274 ± 58 µM | B2
